We go through 39 sequences from the supplement of paper PMC9170038.

For series [1], the system named is MS2 coat protein. As to the kind of experiment: apparent KD of MS2 coat protein, switch OFF state (with FMN for OFF switches, without FMN for ON switches); designed switch direction (-1 OFF switch, 1 ON switch): -1; higher = weaker reporter binding. The note with it: FMN input: 0 or 200 uM; Eterna round: R93 (includes R88 designs). An outline of the steps:
(§1)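 Designed RNA switches, transcribed on-chip from Illumina sequencing clusters, were titrated with SNAP-549-labelled MS2 coat protein from 0.7 or 1.5 nM to 3 µM in twofold steps. The solution was 100 mM Tris-HCl pH 7.5, 80 mM KCl, 4 mM MgCl2, with constant ligand or without it. Apparent KD is the median over each design's normalised cluster binding-curve fits.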

For series [2], the system named is MS2 coat protein. The series can be described thus: apparent KD of MS2 coat protein, switch ON state; designed switch direction (-1 OFF switch, 1 ON switch): -1; higher = weaker reporter binding. The note with it: FMN input: 0 or 200 uM; Eterna round: R93 (includes R88 designs). An outline of the steps: as §1

Consider “AAAAAGAGAGGAUAUGCAGGAGGUAAGGUCGAAAAAAAAAAACAUGAGGAUCACCCAUGUAGAAGGUUUAAAAA [Ecls2-VII]”, for which the entries for the “apparent KD of MS2 coat protein” value in the series on MS2 coat protein [1] and with MS2 coat protein [2] were 23.9 nM and 23.6 nM, respectively.
As for “AAAAAGAUAGGAUAUACGAACAUGUCGAAAGACGUGAAGGGACAUGAGGAUCACCCAUGUAGAAGGGUUAAAAA [Mat - Exclusion 2 - JL mod - D88]”, the “apparent KD of MS2 coat protein” value stood at 50 nM in the series on MS2 coat protein [1] and 149 nM in the series on MS2 coat protein [2].
As to “AAAAAGCAAGGAUAUACAUGAGGAUCACCCAUGUGAAAAAAAACAAUAAGAAGAACAAGUAGAAGGUGCAAAAA [Mod of Ex3 Tesla 1 - Jieux - Exclusion 3]”, the figures for the “apparent KD of MS2 coat protein” value in the series on MS2 coat protein [1] and with MS2 coat protein [2] were 28.2 nM and 19.5 nM, respectively.
On to “AAAAAGCGAGGAUAUACAUGAGGAUCACCCAUGUGAGAGAAAAAAAGGAGAAAAAAAAGUAGAAGGCGCAAAAA [Abraham Harold Maslow]”, for which the “apparent KD of MS2 coat protein” value with MS2 coat protein [1] worked out at 68.3 nM; in the series on MS2 coat protein [2], 63.8 nM.
Consider “AAAAAGCGAGGAUAUACGAAGCUAAGACAAAUAAGCAAGGGACAUGAGGAUCACCCAUGUAGAAGGCGCAAAAA [Exclusion 2-01... 60% 2]”, for which the “apparent KD of MS2 coat protein” value in the series with MS2 coat protein [1] is 58.6 nM; in the series on MS2 coat protein [2], 29.4 nM.
For “AAAAAGCGAGGAUAUACGAGUCAAAGAAAAGACAAAAGGGAACAUGAGGAUCACCCAUGUAGAAGGCGCAAAAA [Fiskers exclusion D2 62% 2]”, the entries for the “apparent KD of MS2 coat protein” value with MS2 coat protein [1] and with MS2 coat protein [2] were 100 nM and 30 nM, respectively.
Turning to “AAAAAGGCAGGAUAUACAAAACAGGGAAACCUGAAAGGGAAACAUGAGGAUCACCCAUGUAGAAGGGCCAAGAA [Clint Eastwood 64% 1]”, the “apparent KD of MS2 coat protein” value was determined as 95.4 nM in the series on MS2 coat protein [1] and 37.3 nM with MS2 coat protein [2].
The like results for “AAAAAGGCAGGAUAUGCAUACUCACGGAAAAAAAGGUUGGGACAUGAGGAUCACCCAUGUAGAAGGGCCAAAAA [Dora Explored 14 - Jieux - Exclusion 2]” were, in that order, 23.8 nM and 29.6 nM.
Consider “AAAAAGGGAGGAUAUACGAAACAGGGAAACCUGAAAAGGAGACAUGAGGAUCACCCAUGUAGAAGGCCCAAGAA [Clint Eastwood 64% 4]”, for which the “apparent KD of MS2 coat protein” value turned out to be 53.3 nM with MS2 coat protein [1] and 25.3 nM with MS2 coat protein [2].
Taken in the same sequence, the figures for “AAAAAGUCAGGAUAUACAAAAGUGCGAAAGCACAAAAGGAAACAUGAGGAUCACCCAUGUAGAAGGGACAAGAA [Married to this design]” were 24.2 nM and 42.3 nM.
With “AAAAAGUCAGGAUAUACGGGAGUGCGAAAGCACAAAAAAAAACAUGAGGAUCACCCAUGUAGAAGGGACAAGAA [Married to this design, 61% 5]”, the “apparent KD of MS2 coat protein” value in the series with MS2 coat protein [1] came to 34.5 nM; with MS2 coat protein [2], 46.1 nM.
Turning to “AAAAAGUCAGGAUAUGCUUAUAAUAAGAAAAUUAGAGAUAUGCAGAAGGGACAUGAGGAUCACCCAUGUAAAAA [Ex 4.1]”, the “apparent KD of MS2 coat protein” value worked out at 36.4 nM in the series on MS2 coat protein [1] and 53.2 nM in the series with MS2 coat protein [2].
As to “AAAAAGUCAGGAUAUUCGGAUAGGAAAACGAAAACCUAUCCGAAGAAGGGACAUGAGGAUCACCCAUGUGGAAA [67% Ecls-II - Late G segment 1]”, the results for the “apparent KD of MS2 coat protein” value with MS2 coat protein [1] and with MS2 coat protein [2] were 170 nM and 88.7 nM, respectively.
As to “AAAAAGUGAGGAUAUACAGAUAAAAAAACGAAAAAAAAUCUGUAGAAGGCACAUGAGGAUCACCCAUGUAAAAA [Ex 4 May 3]”, the “apparent KD of MS2 coat protein” value in the series with MS2 coat protein [1] stood at 39 nM; in the series with MS2 coat protein [2] it was 43.4 nM.
For the sequence “AAAAAGUGAGGAUAUACAUGAGGAUCACCCAUGUAAAAAAAAAAAAGGGUGGAAGAAAGUAGAAGGCACCAAAA [Ex 3 May 47]”, the “apparent KD of MS2 coat protein” value came to 75.1 nM in the series on MS2 coat protein [1] and 67.3 nM with MS2 coat protein [2].
In the case of “AAAAAGUGAGGAUAUACAUGAGGAUCACCCAUGUAAAAGGUCAGGGUGGCGGAGGACGGUAGAAGGCGCAAAAA [Excls3-IX]”, the “apparent KD of MS2 coat protein” value in the series with MS2 coat protein [1] came out at 40.2 nM; with MS2 coat protein [2] it was 34.5 nM.
As to “AAAAAGUGAGGAUAUACAUGAGGAUCACCCAUGUAAAAGGUCGCGGGAGCGGAGGACGGUAGAAGGCGCAAAAA [Excls3-VIIi]”, the “apparent KD of MS2 coat protein” value in the series with MS2 coat protein [1] is 28.9 nM; in the series on MS2 coat protein [2], 25.3 nM.
Regarding “AAAAAGUGAGGAUAUACAUGAGGAUCACCCAUGUGUAUAAAAAAUUACACAAAAGAAAGUAGAAGGCACUAAAA [Ex 3 Summer]”, the “apparent KD of MS2 coat protein” value in the series with MS2 coat protein [1] was determined as 32 nM; with MS2 coat protein [2], 20.3 nM.
“AAAAAGUGAGGAUAUACGUUAAAAAAAAAAAAAAAAAAGCAGUAGAAGGCACAUGAGGAUCACCCAUGUAAAAA [Ex4 Malc#2]”: the “apparent KD of MS2 coat protein” value was found to be 26 nM in the series with MS2 coat protein [1] and 41.3 nM with MS2 coat protein [2].
Taken in the same sequence, the figures for “AAAAAGUGAGGAUAUCUGGAUAGGAAAAAGAAAACCUAUCCAGAGAAGGCACAUGAGGAUCACCCAUGUAAAAA [JL cataway mod 5]” were 41.2 nM and 31.6 nM.
Regarding “AAAAAGUUAGGAUAUACAGAUAAAAAAACGAAAAAAAAUCUGUAGAAGGAACAUGAGGAUCACCCAUGUAAAAA [Ex 4 May 2]”, the “apparent KD of MS2 coat protein” value worked out at 16.7 nM in the series on MS2 coat protein [1] and 25.6 nM in the series on MS2 coat protein [2].
Take “AAAAAUGCAGGAUAUACGAACAUGUCAAAAGACGUGAAGGGACAUGAGGAUCACCCAUGUAGAAGGGUAAAGAA [JL Neck Breaker 14]”: the “apparent KD of MS2 coat protein” value in the series with MS2 coat protein [1] came to 46 nM; in the series with MS2 coat protein [2], 248 nM.
Regarding “AAAAAUGGAGGAUAUACAUGAGGAUCACCCAUGUGUAACUAUACUAAGCACAAACCAAGUAGAAGGCCAAAAAA [Gilly Gone Silly 10 - Jieux - Exclusion 3]”, the “apparent KD of MS2 coat protein” value came out at 95.3 nM with MS2 coat protein [1] and 45.4 nM in the series with MS2 coat protein [2].
For the sequence “AAAAAUGGAGGAUAUACAUGAGGAUCACCCAUGUGUGGGCAUACUAUGUGGGCGUCAGGUAGAAGGCCAAAAAA [Gilly Gone Silly 25 - Jieux - Exclusion 3]”, the “apparent KD of MS2 coat protein” value with MS2 coat protein [1] stood at 273 nM; in the series with MS2 coat protein [2] it was 93.7 nM.
Take “AAAACACAUGAGGAUCACCCAUGUCAGGAUAUACGAGAAAGAAAAGAAAAGAAAAGAAGUAGAAGGGACUAGAA [Exclusion1 Malc#3]”: the “apparent KD of MS2 coat protein” value in the series on MS2 coat protein [1] was determined as 22.4 nM; with MS2 coat protein [2], 15.7 nM.
Consider “AAAACACAUGAGGAUCACCCAUGUGAGGAUAUGCUAUGGAAAAUAAAAAUAAAACAUAGCAGAAGGCACAAGGA [Denovo 17]”, for which the “apparent KD of MS2 coat protein” value in the series on MS2 coat protein [1] came out at 50 nM; in the series on MS2 coat protein [2], 28 nM.
The like results for “AAAACGGCAGGAUAUACAAUUGAGAACUAGAUCGAAAAAAAACAUGAGGAUCACCCAUGUAGAAGGGCCAAAAA [Ex2 Malc#9]” were, in that order, 55.3 nM and 34.7 nM.
The like results for “AAAACGGCAGGAUAUACGAUUUGGAACUAGACCGAGGAACCACAUGAGGAUCACCCAUGUAGAAGGGCCAAAAA [Ex2 Malc#16]” were, in that order, 19.7 nM and 17.2 nM.
Regarding “AAAACGGUAGGAUAUACAAUUGGGAACUAGACCGAAAAAAAACAUGAGGAUCACCCAUGUAGAAGGGCCAAAAA [Ex2 Malc#11]”, the “apparent KD of MS2 coat protein” value in the series with MS2 coat protein [1] came to 91.2 nM; in the series with MS2 coat protein [2], 47.8 nM.
The like results for “AAAACGUCAGGAUAUACAGAAGAGAUCACGAAAAAAAAAAAACAUGAGGAUCACCCAUGUAGAAGGGACAAAAA [Ex2 Malc#3]” were, in that order, 136 nM and 117 nM.
For the sequence “AAAACUGGAGGAUAUACGAACAUGUCGAAAGACGUGAAGGGACAUGAGGAUCACCCAUGUAGAAGGCUAGAAAA [Mat - Exclusion 2 - JL mod - D72]”, the figures for the “apparent KD of MS2 coat protein” value in the series on MS2 coat protein [1] and with MS2 coat protein [2] were 58.4 nM and 42.5 nM, respectively.
The like results for “AAAAGGCGAGGAUAUACAUGAGGAUCACCCAUGUAAGUAAGCCUGGCUGAAACUAAAUGUAGAAGGCGCAAAAA [Mat - Exclusion 3 - Neo mod - D73]” were, in that order, 56.2 nM and 18.2 nM.
As to “AAAAGGGCAGGAUAUACAUGAGGAUCACCCAUGUGAAAAAAAAAAAAAAAAAAAAAGUGUAGAAGGGUCAAAAA [Exclusion 3 - Omei 3]”, the “apparent KD of MS2 coat protein” value with MS2 coat protein [1] stood at 95.4 nM; in the series on MS2 coat protein [2] it was 55.3 nM.
Consider “AAAAUACAUGAGGAUCACCCAUGUGAGGAUAUGCUAUGGAAAAUAAAAAUAAAACAUAGCAGAAGGUACAAAAA [Denovo 14]”, for which the “apparent KD of MS2 coat protein” value in the series with MS2 coat protein [1] was found to be 33.4 nM; in the series on MS2 coat protein [2], 18.2 nM.
Taken in the same sequence, the figures for “AAAAUGUCAGGAUAUGCGAAGGCGUCUGACGGACGAGGAUUGCAGAAGGGACAUGAGGAUCACCCAUGUAAAAA [Mod Hyphema's Change in Energy -added G at 31]” were 133 nM and 79.5 nM.
Taken in the same sequence, the figures for “AAAAUGUCAGGAUAUGCGAAGGCGUCUGAUAGACGAGGCUAGCAGAAGGGACAUGAGGAUCACCCAUGUGGAAA [Power strip 63% 2]” were 128 nM and 125 nM.
For the sequence “AAACCACAUGAGGAUCACCCAUGUCAGGAUAUGAACGAAAUAAAAUAAAAAUAAAAGUUCAGAAGGGACAAAAA [Mat - Exclusion 1 - Eli mod - D16]”, the figures for the “apparent KD of MS2 coat protein” value in the series on MS2 coat protein [1] and with MS2 coat protein [2] were 48.7 nM and 37.4 nM, respectively.
The like results for “AAACCACAUGAGGAUCACCCAUGUCAGGAUAUGCACGAAAAUAAAUAAAAAUAAAAGUGCAGAAGGGACUAAAA [66%, Wbt, 14]” were, in that order, 45 nM and 31.9 nM.
The like results for “AAACCACAUGAGGAUCACCCAUGUCAGGAUAUGCUAUGGAAAAUAAAAAUAAAACAUAGCAGAAGGGACAAAAA [Denovo 6]” were, in that order, 66 nM and 37.2 nM.
